According to US20220281976A1 (Alector, published 2022):

Assays:
[1] = target: T1, human CD33 (human, UniProt P20138 18-364); experiment: cell-based or functional assay
[2] = target: T2, mouse CD33 Fc fusion protein (mouse, UniProt Q63994 18-240, limits assumed); experiment: ForteBio BLI or MSD-SET
T2 construct: also called mCD33-Fc
T2 sequence: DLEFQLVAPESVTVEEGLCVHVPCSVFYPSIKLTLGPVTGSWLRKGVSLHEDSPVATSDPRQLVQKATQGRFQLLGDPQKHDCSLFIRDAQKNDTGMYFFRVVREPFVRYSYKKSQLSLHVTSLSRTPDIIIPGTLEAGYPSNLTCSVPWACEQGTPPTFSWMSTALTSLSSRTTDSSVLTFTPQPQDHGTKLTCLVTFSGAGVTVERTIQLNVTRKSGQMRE

[3] = target: T3, human CD33 Fc fusion protein (human, UniProt P20138 18-259); experiment: ForteBio BLI or MSD-SET, IgG, avid;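 note: Anti-CD33 IgG affinity by BLI, IgG captured on AHQ sensors with antigen in solution and a one-to-one kinetic fit, or by MSD solution equilibrium titration with quadratic fit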
T3 construct: also called hCD33-Fc; human CD33/Fc chimera (R&D Systems)
T3 sequence (P20138 18-259 limits assumed): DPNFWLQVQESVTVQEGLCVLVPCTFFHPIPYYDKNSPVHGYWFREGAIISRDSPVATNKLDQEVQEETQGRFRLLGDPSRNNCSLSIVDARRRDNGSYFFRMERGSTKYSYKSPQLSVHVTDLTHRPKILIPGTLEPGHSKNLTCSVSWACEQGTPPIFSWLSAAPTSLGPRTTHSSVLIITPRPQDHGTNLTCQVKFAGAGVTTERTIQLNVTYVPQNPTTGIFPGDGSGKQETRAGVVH

[4] = target: T1, human CD33; experiment: flow cytometry, human primary T cells;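 note: binding of anti-CD33 antibodies at 10 ug/ml to human primary T cells, 1 h on ice, detected with PE-labelled secondary antibody, read as flow cytometry MFI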
[5] = target: T1, human CD33; experiment: flow cytometry, human primary monocytes; parameters: reference not given here;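 note: binding of anti-CD33 antibodies at 10 ug/ml to human primary monocytes, 1 h on ice, detected by PE-labelled secondary antibody, flow cytometry readout as mean fluorescence intensity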
[6] = target: T1, human CD33; experiment: flow cytometry, human primary macrophages;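 note: binding of CD33 antibodies at 10 µg/ml to human primary macrophages, 1 h on ice, detected with PE-labelled secondary antibody by flow cytometry, reported as MFI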
Procedure: Initial characterization of CD33 antibodies involved determining their ability to bind CD33 expressed on a CHO cell line, on human primary monocytes, human primary macrophages, human primary dendritic cells, and on human primary T cells. Cells were harvested, plated at 10⁶/ml in a 96 well plate, and incubated in 100 ul PBS containing 2% FBS, 2 mM EDTA and 10 ug/ml Mab and Fc blocking reagent for 1 hour in ice. Cells were washed twice and incubated in 100 ul PBS containing 2% FBS, 2 mM EDTA and 5 ug/ml PE-conjugated secondary antibody for 30 minutes on ice. Cells were washed twice in cold PBS and analyze by flow cytometry on a BD FACS Canto. Data analysis and calculation of MFI values was performed with FlowJo (TreeStar) software version 10.0.7.

[7] = target: T1, human CD33; experiment: flow cytometry, human primary dendritic cells;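 note: binding of anti-CD33 antibodies (10 ug/ml, 1 h on ice) to human primary dendritic cells, detected with a PE-labelled secondary antibody, reported as flow cytometry MFI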
[8] = target: T4, human monomeric His tagged CD33 protein (human, UniProt P20138 18-259); experiment: ForteBio BLI or MSD-SET, IgG, monomeric antigen;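 note: BLI: antibodies captured on AHQ sensors, 100 nM antigen association 5 min, dissociation 5 min, 1:1 fit. MSD-SET: antigen fixed at 50 pM, antibody titrated, quadratic fit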
T4 construct: also called hCD33-His
T4 sequence (P20138 18-259 limits assumed): as above
Procedure: The binding affinity of each anti-CD33 antibody was determined by measuring their KD by ForteBio or MSD-SET. […] Briefly, ForteBio affinity measurements were performed by loading IgGs on-line onto AHQ sensors. Sensors were equilibrated off-line in assay buffer for 30 min and then monitored on-line for 60 seconds for baseline establishment. Sensors with loaded IgGs were exposed to 100 nM antigen for 5 minutes, then transferred to assay buffer for 5 min for off-rate measurement. Kinetics were analyzed using the 1:1 binding model.
Solution equilibrium titrations (SET) were performed in PBS+0.1% IgG-Free BSA (PBSF) with antigen held constant at 50 pM and incubated with 3-to 5-fold serial dilutions of antibody starting at 10 nM. Antibodies (20 nM in PBS) were coated onto standard bind MSD-ECL plates overnight at 4° C. or at room temperature for 30 min. Plates were then blocked for 30 min with shaking at 700 rpm, followed by three washes with wash buffer (PBSF+0.05% Tween 20). SET samples were applied and incubated on the plates for 150s with shaking at 700 rpm followed by one wash. Antigen captured on a plate was detected with 250 ng/mL sulfotag-labeled streptavidin in PBSF by incubation on the plate for 3 min. The plates were washed three times with wash buffer and then read on the MSD Sector Imager 2400 instrument using 1× Read Buffer T with surfactant. The percent free antigen was plotted as a function of titrated antibody in Prism and fit to a quadratic equation to extract the KD. To improve throughput, liquid handling robots were used throughout MSD-SET experiments, including SET sample preparation.

[9] = target: T3, human CD33 Fc fusion protein; experiment: RBC adhesion to plate-bound CD33-Fc; antibody 0.5 ug/ml;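 note: Plate-coated CD33-Fc preincubated 1 h with antibody, then red blood cells added for 1 h at room temperature, adherent cells lysed and quantified via peroxidase activity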
Procedure: (§1) Briefly, 5 ug/ml CD33-Fc was coated overnight at RT in 96 well Immunolon plates, then washed with PBS, blocked for one hour with binding buffer (PBS containing %0.25 BSA 1 mM CaCl₂). CD33 antibodies (0.5 ug/ml or 1.0 ug/ml) or Fabs (25 ug/ml) were bound for one hour at RT with gentle rocking. After removal of unbound antibody, red blood cells were added to each well at a concentration of 3.0×10⁶ cells per ml and incubated at RT for one hour. Unbound RBCs were then carefully washed off 3× with PBS, and water was added to each well for hypotonic lysis of bound RBCs. The plate was transferred to −80° C. for 10 minutes, followed by 37° C. for 15 minutes. Bound RBCs were detected by peroxidase activity, followed by 2N sulfuric acid to stop the reaction.

[10] = target: T3, human CD33 Fc fusion protein; experiment: RBC adhesion to plate-bound CD33-Fc; antibody 1.0 ug/ml;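 note: red blood cells adhering to plate-coated CD33-Fc after 1 h antibody pretreatment, then 1 h at room temperature, bound cells read as peroxidase activity after lysis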
Procedure: as §1

T1 sequence (P20138 18-364): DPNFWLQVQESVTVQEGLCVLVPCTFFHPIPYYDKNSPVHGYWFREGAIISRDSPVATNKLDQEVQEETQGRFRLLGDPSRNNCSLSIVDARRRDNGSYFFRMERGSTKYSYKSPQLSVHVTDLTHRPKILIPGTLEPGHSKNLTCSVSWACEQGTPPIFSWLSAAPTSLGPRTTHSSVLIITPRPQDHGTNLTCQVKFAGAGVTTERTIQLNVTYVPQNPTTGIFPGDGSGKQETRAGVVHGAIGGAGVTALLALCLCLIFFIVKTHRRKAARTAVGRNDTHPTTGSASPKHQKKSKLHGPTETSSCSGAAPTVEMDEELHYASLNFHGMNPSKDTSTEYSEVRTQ

| Percent CD33 Surface Expression, DC % CD33 [1] [%] | Percent CD33 Surface Expression, Macrophage % CD33 [1] [%] | Percent CD33 Surface Expression, Monocyte % CD33 [1] [%] | binding result [2] | Kd [3] [nM] | T cell MFI [4] | Monocyte MFI [5] | Macrophage MFI [6] | DC MFI [7] | Kd [8] [nM] | Percent RBC Binding to CD33 [9] [%] | Percent RBC Binding to CD33 [10] [%] | Binder |
| --- | --- | --- | --- | --- | --- | --- | --- | --- | --- | --- | --- | --- |
| 19.6 | 41.2 | 25.3 | no binding (tested: 100 nM) | 1.16 | 109 | 1120 | 1420 | 203 | 4.88 | 20.6 | 10.5 | C-89 (antibody, V domains shown, human IgG1) VH: QLQLQESGPGLVKPSETLSLTCTVSGGSISSSSYYWGWIRQPPGKGLEWIGSIYYSGSTYYNPSLKSRVTISVDTSKNQFSLKLSSVTAADTAVYYCAREGPRFDPWGQGTLVTVSS VL: not shown |
| 28.4 | 47.5 | 36.1 | no binding (tested: 100 nM) | 1.93 | 246 | 971 | 1260 | 172 | 7.04 | 29.4 | 9.5 | C-87 (antibody, V domains shown, human IgG1) VH: QLQLQESGPGLVKPSETLSLTCTVSGGSISSSSYAWGWIRQPPGKGLEWIGSIYYSGSTYYNPSLKSRVTISVDTSKNQFSLKLSSVTAADTAVYYCARDPLYPLTPYGMDVWGQGTTVTVSS VL: EIVMTQSPATLSLSPGERATLSCRASQSVSSYLAWYQQKPGQAPRLLIYDASNRATGIPARFSGSGSGTDFTLTISSLEPEDFAVYYCQQLSVFPPTFGGGTKVEIK |
| 18.6 | 41.4 | 28.7 | no binding (tested: 100 nM) | 0.734 | 204 | 957 | 1200 | 178 | 2.7 | 39.4 | 10.9 | C-88 (antibody, V domains shown, human IgG1) VH: QLQLQESGPGLVKPSETLSLTCTVSGGSISSSSYYWGWIRQPPGKGLEWIGSIYYSGSTYYNPSLKSRVTISVDTSKNQFSLKLSSVTAADTAVYYCARLPIYYDSSGYFDYHGMDVWGQGTTVTVSS VL: EIVLTQSPATLSLSPGERATLSCRASQSVSSYLAWYQQKPGQAPRLLIYDASNRATGIPARFSGSGSGTDFTLTISSLEPEDFAVYYCQQHANHPPTFGGGTKVEIK |
| 75.9 | – | 90.4 | no binding (tested: 100 nM) | 7.39 | 95.8 | 532 | 313 | 55 | 62.6 | 96.8 | 103 | C-84 (antibody, V domains shown, human IgG1) VH: not shown VL: DIQMTQSPSTLSASVGDRVTITCRASQSISSWLAWYQQKPGKAPKLLIYDASSLESGVPSRFSGSGSGTEFTLTISSLQPDDFATYYCQQVNRYPFTFGGGTKVEIK |
| 83.1 | – | 91.1 | no binding (tested: 100 nM) | 2.28 | 228 | 815 | 654 | 43 | 11.2 | 45.7 | 83.5 | C-79 (antibody, V domains shown, human IgG1) VH: QVQLVQSGAEVKKPGASVKVSCKASGYTFTSYYIHWVRQAPGQGLEWMGIINPSGGSTSYAQKFQGRVTMTRDTSTSTVYMELSSLRSEDTAVYYCARVSRQQHSMDVWGQGTTVTVSS VL: not shown |
| 21.7 | 41.8 | 29.3 | no binding (tested: 100 nM) | 2.94 | 318 | 80 | 628 | 923 | 22.1 | 11.3 | 8.95 | C-69 (antibody, V domains shown, human IgG1) VH: EVQLVESGGGLVQPGGSLRLSCAASGFTFSSYWMSWVRQAPGKGLEWVANIKSDGSEKYYVDSVKGRFTISRDNAKNSLYLQMNSLRAEDTAVYYCARAETYQLSSAFDIWGQGTMVTVSS VL: not shown |
